According to patent US20230183322A1 (PEKING UNIVERSITY, published 2023):
Numbering of substitutions follows the chain as printed.

B1: ABU-205 (antibody, V domains shown)
VH: QVQLVQSGAEVKKPGSSVKVSCKASGGTFSSYAISWVRQAPGQGLEWMGRIIPIFGTANYAQKFQGRVTITADESTSTAYMELSSLRSEDTAVYYCARAAYYYDSSGYGWFDPWGQGTLVTVSS
VL: not shown
B2: ABU-254 (antibody, V domains shown)
VH: B1 VH
VL: not shown
B3: ABU-316 (antibody, V domains shown)
VH: QVQLVESGGGVVQPGRSLRLSCAASGFTFSSYGMHWVRQAPGKGLEWVAVISYDGSNKYYVDSVKGRFTISRDNSKNTLYLQMNSLRAEDTAVYYCAKDPYYYGSGSSNFFDYWGQGTLVTVSS
VL: SYVLTQPPSVSVAPGKTARITCGGNNIGSKSVHWYQQKPGQAPVLVVYDDNDRPSGIPDRFSGSNSGNTATLTISRVEAGDEADYYCQVWDSSSDHYWVFGGGTKLTVL
B4: ABU-319 (antibody, V domains shown)
VH: B3 VH with S52W, V61A, D99G, P100E, Y101G, Y102V, S108R, N109Y, F111L
VL: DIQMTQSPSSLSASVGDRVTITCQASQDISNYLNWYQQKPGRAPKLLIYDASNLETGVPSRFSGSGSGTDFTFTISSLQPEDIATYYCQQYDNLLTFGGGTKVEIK
B5: ABU-317 (antibody, V domains shown)
VH: QVQLVESGGGVVQPGWSLRLSCAASGFTFSSFAMYWVRQAPGKGLEWVAVISYDGANKYYADSVKGRFTISRDNSKNTLYLQVNSLRVEDTAVYYCARGPDYYDTGGYFDLWGRGTLVTVSS
VL: QSVLTQPPSVSAAPGQKVTISCSGSSSNIGNNYVSWYQQLPGTAPKLLIYDNNKRPSGIPDRFSGSKSGTSATLGITGLQTGDEADYYCGTWDSSLSAGVFGGGTKLTVL
B6: ABU-288 (antibody, V domains shown)
VH: QVQLQESGPGLVKPSQTLSLTCTVSGGSISSGLYHWSWIRQPAGKGLEWIGRIFSSGSTAYSPSLKSRVIISADTSKNQFSLKLSSVTAADTAVYYCARDSPLKFDSFGYPLYGMDVWGQGTTVTVSS
VL: DIQMTQSPSSLSASVRDKVTITCRASQSISSCLNWYQQKPGKAPKVLIYAASSLQSGVPSRFSGSGSGTDFTLTISSVQPEDFATYYCQQSYSVPHTFGQGTKVEIK
B7: ABU-145 (antibody, V domains shown)
VH: QVQLQESGPGLVKPSQTLSVTCTVSGGSINRDGHYWIWIRQHPEKGLEWLGYIYSGRNTFYNPSLRSRLSISADTSKSQFSLNLHSVTAADTAVYYCAKMYSDYDDNYYGLDVWGRGTTVTVSS
VL: EIVLTQSPGTLSLSPGERATLSCRASHTISSSYLAWYQQKAGQAPRLLIYAASSRATGIPARFSGSGSGTDFTLTISRLEPEDFAVYYCQQFDNSPPWTFGRGTKVEMR
B8: ABU-323 (antibody, V domains shown)
VH: EVQLVESGGGLVQPGGSLRLSCAASGFTVSSNYMSWVRQAPGKGLEWVSVIYSGGTTYYADSVKGRFTISRHNSKNTLYLQMNSLRAEDTAVYYCARDWGEYYFDYWGQGTLVTVSS
VL: not shown
B9: ABU-394 (antibody, V domains shown)
VH: B8 VH with V12I, T56S, H72D, D98S, W99Y, E101D
VL: DIQLTQSPSSLSASVGDRVTITCRASQGISSYLAWYQQKPGKAPKLLIYAASTLQSGVPSRFSGSGSGTDFTLTISSLQPEDFATYYCQQLNSFGPGTKVDIK
B10: ABU-393 (antibody, V domains shown)
VH: B8 VH with V12I, T56S, H72D, W99Y, E101D, Y103W, Y106P
VL: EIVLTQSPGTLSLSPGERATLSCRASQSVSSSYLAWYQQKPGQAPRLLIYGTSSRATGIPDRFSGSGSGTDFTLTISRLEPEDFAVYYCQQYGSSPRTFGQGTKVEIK
B11: ABU-312 (antibody, V domains shown)
VH: EVQLLESGGGLVQPGGSLRLSCAASGFTFSTYAMSWVRQAPGKGLEWVSVISGSGGSTYYADSVKGRFTISRDNSKNTLYLQMNSLRAEDTAVYYCAKEYYYDSSGYYYREDAFDIWGQGTMVTVSS
VL: DIQMTQSPSAMSASVGDRVTITCRASQGISNYLAWFQQKPGKVPKRLIYAASSLQSGVPSRFSGSGSGTEFTLTISSLQPEDFATYYCLQHNSYPRTFGQGTKVEIK
B12: ABU-320 (antibody, V domains shown)
VH: QVQLVESGGGVVQPGRSLRLSCAASGFTFSSYATHWVRQAPGKGLEWVAVISYDGSNKYHADSVKGRFTISRDNSKNTLYLQMNSLRAEDTAVYYCAREWSRGAVAGTGYFDYWGQGTLVTVSS
VL: SYVLTQPPSVSVAPGKTARITCGGNNIGSKSVHWYQQKPGQAPVLVVYDDSDRPSGIPERFSGSNSGNTATLTISRVEAGDEADYYCQVWDSSGDHWVFGGGTKLTVL
B13: ABU-328 (antibody, V domains shown)
VH: EVQLVESGGGLVQPGGSLRLSCAASGFTVSSNYMSWVRQAPGKGLEWVSVIYSGGSTYYADSVKGRFTISRDNSKNTLYLQMNSLRAEDTAVYYCARLSGTGYGGDGGWFDPWGQGTLVTVSS
VL: QSALTQPASVSGSPGQSITISCTGTSSDVGSYNLVSWYQQHPGKAPKLMIYEVSKRPSGVSNRFSGSKSGNTASLTISGLQAEDEADYYCCSYAGSSLWVFGGGTKLTVL
B14: ABU-289 (antibody, V domains shown)
VH: QVQLVQSGAEVKKPGSSVKVSCKASGGTFSSYTISWVRQAPGQGLEWMGRIIPILGIANYAQKFQGRVTITADKSTSTAYMELSSLRSEDTAVYYCARGIVGATPGYFDYWGQGTLVTVSS
VL: EIVMTQSPATLSVSPGERATLSCRASQSVSSNLAWYQQKPGQAPRLLIYGASTRATGIPARFSGSGSGTEFTLTISSLQSEDFAVYYCQQYNNWLTFGGGTKVEIK
B15: ABU-305 (antibody, V domains shown)
VH: QVQLVQSGAEVKKPGASVKVSCKASGYTFTSYGISWVRQAPGQGLEWMGWISAYNGNTNYAQKLQGRVTMTTDTSTSTAYMELRSLRSDDTAVYYCARDGHSAWGAFDIWGQGTMVTVSS
VL: not shown
B16: ABU-210 (antibody, V domains shown)
VH: EVQLVESGGGLVQPGRSLRLSCAASGFTFDDYAMHWVRQAPGKGLEWVSGISWNSGTIGYEDSVKGRFIISRDNAKNSLYLQMNSLRAEDTALYYCAKEPLFGETYGMDVWGQGTTVTVSS
VL: QSALTQPASVSGSPGQSITISCTGTSSDVGGYNYVSWYQHHPGKAPKLMIYEVSNRPSGVSNRFSGSKSANTASLTISGLQTEDEADYYCSSYTSISTVLFGGGTKLTVL
B17: ABU-181 (antibody, V domains shown)
VH: QVQLQESGPGLVKPSQTLSLICTVSDDSISSGSYYWSWIRQPAGKGLEWIGRIYAGESTNYNPSLKSRVIISVDTSKKQFSLRLSSVTAADTAVYYCARGAVVTPFGLDSWGQGTLVTVSS
VL: SYELTQPPSVSVSPGQTARITCSGDALPKQYAYWYQQKTGQAPVLVIYKDSERPSGIPERVSGSSSGTTVTLTISGVQAEDEADYYCQSADSSGTWVFGGGTKLTVL
B18: ABU-298 (antibody, V domains shown)
VH: QVQLVQSGAEVKKPGASVKVSCKASGYTFTSYGISWVRQAPGQGLEWMGWISAYNGNTNYAQKLQGRVTMTTDTSTSTAYMELRSLRSDDTAVYYCARDESGSYYGDQAFDIWGQGTMVTVSS
VL: not shown
B19: ABU-211 (antibody, V domains shown)
VH: EAQLVESGGGLVQPGRSLTVSCAVSGFTFDDYAMHWVRQAPGKGLEWVSSISWNSEKIAYADSVKGRFTVSRDNAKNSLYLQMTSLRPEDTALYYCARDKGSGSYYSGAYYYYMDVWGKGTTVTVSS
VL: SDALTQPPSVSVAPGKTAAITCGGDNIGSKNVHWYQQKPGQAPLLVVFDDGDRPSGIPERFSGSNSGNTATLTISRVEAGDEADYYCQVWDGGSDDRGYVFGTGTKVTVL

Each binder was assayed against biotin-labeled SARS-COV-2 RBD domain (SARS-CoV-2, UniProt P0DTC2 319-541) (assay: SPR, Biacore T200, biotin-RBD on SA chip, antibody as analyte).
B1 gave a Kd of under 10 nM. For B2, the Kd was under 10 nM. In the case of B3, the Kd is reported as under 10 nM. B4 showed a Kd of under 10 nM. Work on B5 yielded a Kd of under 20 nM. B6 showed a Kd of under 1 nM. B7 showed a Kd of under 10 nM. Binder B8 has a Kd of under 20 nM. B9 was tested, and the Kd was under 20 nM. With B10 the Kd was under 20 nM. B11 showed a Kd of under 20 nM. For B12, the Kd was under 10 nM. B13 was tested, and the Kd was under 10 nM. For B14, the Kd was under 10 nM. B15 showed a Kd of under 20 nM. Binder B16 has a Kd of under 10 nM. B17 was tested, and the Kd was under 10 nM. In the case of B18, the Kd is reported as under 20 nM. For B19, the Kd was under 20 nM.
